Data as given in patent US12269859B2, “Synthetic immune receptors and methods of use thereof” (Angeles Therapeutics, Inc., priority 2016, dated 2025).

System: target antigen-expressing cell line
Test: Jurkat NFAT-GFP assay, coculture with target cell lines expressing the respective target antigen (summary Table 10A)
Type: cell-based, human
Design: key: The signs +/−, +, 2+ etc. after the name of the cell lines indicate the relative degree of positivity on the Jurkat-NFAT-GFP assay as measured by the % GFP positive cells; +: relative degree of positivity on the Jurkat-NFAT-GFP assay as measured by the % GFP positive cells; 2+: relative degree of positivity on the Jurkat-NFAT-GFP assay as measured by the % GFP positive cells
Settings: for NFAT-GFP ASSAY Positive Cell lines: L428: SIR-expressing Jurkat-NFAT-GFP cells cocultured with L428
Method in brief: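 Jurkat cells carrying an NFAT-site IL-2 promoter driving GFP were lentivirally transduced with SIRs, puromycin-selected, then cocultured with antigen-expressing target cells at E:T about 1:2 for about 4–18 hours. GFP induction was read by flow cytometry as % GFP-positive cells versus parental Jurkat-NFAT-GFP.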

Molecule | NFAT-GFP ASSAY Positive Cell lines: L428 (relative % GFP positive cells) | NFAT-GFP ASSAY Positive Cell lines (coculture with U266 cells) | also measured
031517-T06 (protein) MALPVTALLLPLALLLHAARPLEGKPIPNPLLGLDSTGSGEDLKNVFPPEVAVFEPSKAEIAHTQKATLVCLATGFYPDHVELSWWVNGKEVHSGVCTDPQPLKEQPALNDSRYCLSSRLRVSATFWQNPRNHFRCQVQFYGLSENDEWTQDRAKPVTQIVSAEAWGRADCGITSASYHQGVLSATILYEILLGKATLYAVLVSALVLMAMVKRKDSRGRAKRSGSGATNFSLLKQAGDVEENPGPTSMALPVTALLLPLALLLHAARPDIVLTQSPATLSLSPGDRATLSCRASESVTILGSHLIYWYQQKPGQAPRLLIQLASNVQTGIPARFSGSGSRTDFTLTISSLEPEDFAVYYCLQSRTIPRTFGQGTKLEIKRGGGGSGGGGSGGGGSQVQLVQSGSELKKPGESVKISCKASGYTFTHYSMNWVRQAPGQGLEWMGRINTETGEPLYADDFKGRFVFSLDTSASTAYLQISSLKAEDTAVYYCSNDYLYSLDYWGQGTLVTVSSTREQKLISEEDGSGIQNPDPAVYQLRDSKSSDKSVCLFTDFDSQTNVSQSKDSDVYITDKCVLDMRSMDFKSNSAVAWSNKSDFACANAFNNSIIPEDTFFPSSDVPCDVKLVEKSFETDTNLNFQNLSVIGFRILLLKVAGFNLLMTLRLWSSRAKRSGSGVKQTLNFDLLKLAGDVESNPGPSRGHMTEYKPTVRLATRDDVPRAVRTLAAAFADYPATRHTVDPDRHIERVTELQELFLTRVGLDIGKVWVADDGAAVAVWTTPESVEAGAVFAEIGPRMAELSGSRLAAQQQMEGLLAPHRPKEPAWFLATVGVSPDHQGKGLGSAVVLPGVEAAERAGVPAFLETSAPRNLPFYERLGFTVTADVEVPEGPRTWCMTRKPGA |  |  | NFAT-GFP ASSAY Positive Cell lines: L363 (SIR-expressing Jurkat-NFAT-GFP cells cocultured with L363, relative % GFP positive cells): L363 (+/−), U266; NFAT-GFP ASSAY Positive Cell lines: U266 (SIR-expressing Jurkat-NFAT-GFP cells cocultured with U266, relative % GFP positive cells): (+/−)
012517-G12 (protein) MALPVTALLLPLALLLHAARPLEGKPIPNPLLGLDSTGSGEDLKNVFPPEVAVFEPSKAEIAHTQKATLVCLATGFYPDHVELSWWVNGKEVHSGVCTDPQPLKEQPALNDSRYCLSSRLRVSATFWQNPRNHFRCQVQFYGLSENDEWTQDRAKPVTQIVSAEAWGRADCGITSASYHQGVLSATILYEILLGKATLYAVLVSALVLMAMVKRKDSRGRAKRSGSGATNFSLLKQAGDVEENPGPTSMALPVTALLLPLALLLHAARPDFVMTQSPDSLAVSLGERVTMSCKSSQSLLNSGNQKNYLTWYQQKPGQPPKLLIYWASTRESGVPDRFSGSGSGTDFTLTISSLQAEDVAVYYCQNDYSYPYTFGQGTKLEIKGGGGSGGGGSGGGGSQVQLVQSGAELKKPGASVKVSCKASGYTFTDYYMKWVRQAPGQGLEWIGDIIPSNGATFYNQKFKGRVTITVDKSTSTAYMELSSLRSEDTAVYYCARSHLLRASWFAYWGQGTLVTVSSTREQKLISEEDGSGIQNPDPAVYQLRDSKSSDKSVCLFTDFDSQTNVSQSKDSDVYITDKCVLDMRSMDFKSNSAVAWSNKSDFACANAFNNSIIPEDTFFPSSDVPCDVKLVEKSFETDTNLNFQNLSVIGFRILLLKVAGFNLLMTLRLWSSRAKRSGSGVKQTLNFDLLKLAGDVESNPGPSRGHMTEYKPTVRLATRDDVPRAVRTLAAAFADYPATRHTVDPDRHIERVTELQELFLTRVGLDIGKVWVADDGAAVAVWTTPESVEAGAVFAEIGPRMAELSGSRLAAQQQMEGLLAPHRPKEPAWFLATVGVSPDHQGKGLGSAVVLPGVEAAERAGVPAFLETSAPRNLPFYERLGFTVTADVEVPEGPRTWCMTRKPGA | L428 (+/−) |  | 
012517-J12 (protein) MALPVTALLLPLALLLHAARPLEGKPIPNPLLGLDSTGSGEDLKNVFPPEVAVFEPSKAEIAHTQKATLVCLATGFYPDHVELSWWVNGKEVHSGVCTDPQPLKEQPALNDSRYCLSSRLRVSATFWQNPRNHFRCQVQFYGLSENDEWTQDRAKPVTQIVSAEAWGRADCGITSASYHQGVLSATILYEILLGKATLYAVLVSALVLMAMVKRKDSRGRAKRSGSGATNFSLLKQAGDVEENPGPTSMALPVTALLLPLALLLHAARPDIQMTQSPASLSASLGETVTIECRTSKDIYSNLAWFQQEPGNSPQLLIYDASNLADGVPSRFSGSGSGTQYSLQINNLQSEDVASYFCHQYNNYPYTFGTGTKLELKGGGGSGGGGSGGGGSQVQLQESGPTLVNPGDSVKMSCKASGYTFTDHIIHWVKQSHGKSLEWIGYINPYSGGANYNGKFKSKATLTIDKSSSTAYMEFSRLTSGDSAIYYCALNYGSYYAMDAWGQGTSVTVSSTREQKLISEEDGSGIQNPDPAVYQLRDSKSSDKSVCLFTDFDSQTNVSQSKDSDVYITDKCVLDMRSMDFKSNSAVAWSNKSDFACANAFNNSIIPEDTFFPSSDVPCDVKLVEKSFETDTNLNFQNLSVIGFRILLLKVAGFNLLMTLRLWSSRAKRSGSGVKQTLNFDLLKLAGDVESNPGPSRGHMTEYKPTVRLATRDDVPRAVRTLAAAFADYPATRHTVDPDRHIERVTELQELFLTRVGLDIGKVWVADDGAAVAVWTTPESVEAGAVFAEIGPRMAELSGSRLAAQQQMEGLLAPHRPKEPAWFLATVGVSPDHQGKGLGSAVVLPGVEAAERAGVPAFLETSAPRNLPFYERLGFTVTADVEVPEGPRTWCMTRKPGA | L428 (2+) |  | 
012517-M12 (protein) MALPVTALLLPLALLLHAARPLEGKPIPNPLLGLDSTGSGEDLKNVFPPEVAVFEPSKAEIAHTQKATLVCLATGFYPDHVELSWWVNGKEVHSGVCTDPQPLKEQPALNDSRYCLSSRLRVSATFWQNPRNHFRCQVQFYGLSENDEWTQDRAKPVTQIVSAEAWGRADCGITSASYHQGVLSATILYEILLGKATLYAVLVSALVLMAMVKRKDSRGRAKRSGSGATNFSLLKQAGDVEENPGPTSMALPVTALLLPLALLLHAARPDVLMTQTPVSLPVSLGGQVSISCRSSQSLVHSDGDTYLHWYLQKPGQSPQLLIYRVSNRFSGVPDRFSGSGSGTDFTLKISRVEPEDLGLYYCLQTTHFPPWTFGGGTKLEMKGGGGSGGGGSGGGGSQVQLQQSGPELRRPGSSVRLSCKASGYRIKDFLIHWIKNRPEHGLEWIGWIDPEDGETKYAQKFQTKATLTADTSSNTAYMQLSSLTSEDTATYFCARWGDVYYGLMRGHVMDAWGQGTSVTVSSTREQKLISEEDGSGIQNPDPAVYQLRDSKSSDKSVCLFTDFDSQTNVSQSKDSDVYITDKCVLDMRSMDFKSNSAVAWSNKSDFACANAFNNSIIPEDTFFPSSDVPCDVKLVEKSFETDTNLNFQNLSVIGFRILLLKVAGFNLLMTLRLWSSRAKRSGSGVKQTLNFDLLKLAGDVESNPGPSRGHMTEYKPTVRLATRDDVPRAVRTLAAAFADYPATRHTVDPDRHIERVTELQELFLTRVGLDIGKVWVADDGAAVAVWTTPESVEAGAVFAEIGPRMAELSGSRLAAQQQMEGLLAPHRPKEPAWFLATVGVSPDHQGKGLGSAVVLPGVEAAERAGVPAFLETSAPRNLPFYERLGFTVTADVEVPEGPRTWCMTRKPGA | L428 (+) |  | 
083116-F05 (protein, Polynucleotide encoding a Synthetic Immune Receptor (SIR)) MALPVTALLLPLALLLHAARPLEGKPIPNPLLGLDSTGSGEDLKNVFPPEVAVFEPSKAEIAHTQKATLVCLATGFYPDHVELSWWVNGKEVHSGVCTDPQPLKEQPALNDSRYCLSSRLRVSATFWQNPRNHFRCQVQFYGLSENDEWTQDRAKPVTQIVSAEAWGRADCGITSASYHQGVLSATILYEILLGKATLYAVLVSALVLMAMVKRKDSRGRAKRSGSGATNFSLLKQAGDVEENPGPTSMALPVTALLLPLALLLHAARPDIQMTQSTSSLSASLGDRVTISCSASQGINNYLNWYQQKPDGTVELLIYYTSTLQSGVPSRFSGSGSGTDYSLTISNLEPEDIGTYYCQQYSKLPRTFGGGTKLEIKGGGGSGGGGSGGGGSQVQLQQSGSELMMPGASVKISCKATGYTFSNYWIEWVKQRPGHGLEWIGEILPGTGRTIYNEKFKGKATFTADISSNTVQMQLSSLTSEDSAVYYCARRDYYGNFYYAMDYWGQGTSVTVSSTREQKLISEEDLGSGTPFPSLAPPIMLLVDGKQQMVVVCLVLDVAPPGLDSPIWFSAGNGSALDAFTYGPSPATDGTWTNLAHLSLPSEELASWEPLVCHTGPGAEGHSRSTQPMHLSGEASTARTCPQEPLRGTPGGALWLGVLRLLLFKLLLFDLLLTCSCLCDPAGPLPSPATTTRLRALGSHRLHPATETGGREATSSPRPQPRDRRWGDTPPGRKPGSPVRAKRSGSGVKQTLNFDLLKLAGDVESNPGPSRSRGHMTEYKPTVRLATRDDVPRAVRTLAAAFADYPATRHTVDPDRHIERVTELQELFLTRVGLDIGKVWVADDGAAVAVWTTPESVEAGAVFAEIGPRMAELSGSRLAAQQQMEGLLAPHRPKEPAWFLATVGVSPDHQGKGLGSAVVLPGVEAAERAGVPAFLETSAPRNLPFYERLGFTVTADVEVPEGPRTWCMTRKPGA |  | U266 (+/−) | 
090116-H02 (protein, Synthetic Immune Receptor (SIR)) MALPVTALLLPLALLLHAARPLEGKPIPNPLLGLDSTGSGEDLKNVFPPEVAVFEPSKAEIAHTQKATLVCLATGFYPDHVELSWWVNGKEVHSGVCTDPQPLKEQPALNDSRYCLSSRLRVSATFWQNPRNHFRCQVQFYGLSENDEWTQDRAKPVTQIVSAEAWGRADCGITSASYHQGVLSATILYEILLGKATLYAVLVSALVLMAMVKRKDSRGRAKRSGSGATNFSLLKQAGDVEENPGPTSMALPVTALLLPLALLLHAARPDIQMTQSTSSLSASLGDRVTISCSASQGINNYLNWYQQKPDGTVELLIYYTSTLQSGVPSRFSGSGSGTDYSLTISNLEPEDIGTYYCQQYSKLPRTFGGGTKLEIKGGGGSGGGGSGGGGSQVQLQQSGSELMMPGASVKISCKATGYTFSNYWIEWVKQRPGHGLEWIGEILPGTGRTIYNEKFKGKATFTADISSNTVQMQLSSLTSEDSAVYYCARRDYYGNFYYAMDYWGQGTSVTVSSTREQKLISEEDGSGIQNPDPAVYQLRDSKSSDKSVCLFTDFDSQTNVSQSKDSDVYITDKCVLDMRSMDFKSNSAVAWSNKSDFACANAFNNSIIPEDTFFPSSDVPCDVKLVEKSFETDTNLNFQNLSVIGFRILLLKVAGFNLLMTLRLWSSRAKRSGSGVKQTLNFDLLKLAGDVESNPGPSRGHMTEYKPTVRLATRDDVPRAVRTLAAAFADYPATRHTVDPDRHIERVTELQELFLTRVGLDIGKVWVADDGAAVAVWTTPESVEAGAVFAEIGPRMAELSGSRLAAQQQMEGLLAPHRPKEPAWFLATVGVSPDHQGKGLGSAVVLPGVEAAERAGVPAFLETSAPRNLPFYERLGFTVTADVEVPEGPRTWCMTRKPGA |  | L363 (+), U266 (+) | NFAT-GFP ASSAY Positive Cell lines (coculture with L363 cells): L363 (+), U266 (+)
